# Legend:
# Conditions in all cases: protein: recombinant; tags: N-terminal His6 removed by TEV (leaves SM); blunt
# Etv1 D387A = Etv1 D387A (human, UniProt P50549 326-429, D387A); test: EMSA; 2 nM probe; 10 mM TCEP; EMSA: 50 mM Tris-HCl pH 7.5, 50 mM NaCl, 2 mM MgCl2, 0.01% Tween 20, 5% glycerol, 1 h at room temperature; proteins reduced with 10 mM TCEP unless stated; 10% native PAGE
# Etv1 Y329S-P427S = Etv1 Y329S-P427S (human, UniProt P50549 326-429, Y329S;P427S); test: as above
# Etv1 K379A = Etv1 K379A (human, UniProt P50549 326-429, K379A); test: EMSA; 2 nM and 0.1 nM probe; EMSA: 50 mM Tris-HCl pH 7.5, 50 mM NaCl, 2 mM MgCl2, 0.01% Tween 20, 5% glycerol, 1 h at room temperature; proteins reduced with 10 mM TCEP unless stated; 10% native PAGE
# Etv4 Ets domain = Etv4 Ets domain (human, UniProt P43268 338-470); test: EMSA; 10 mM TCEP; probe 0.1 nM (Table 3) or 0.2 nM (Fig. 9); EMSA: 50 mM Tris-HCl pH 7.5, 50 mM NaCl, 2 mM MgCl2, 0.01% Tween 20, 5% glycerol, 1 h at room temperature; proteins reduced with 10 mM TCEP unless stated; 10% native PAGE
# Etv5 Ets domain = Etv5 Ets domain (human, UniProt P41161 365-462); test: as above
# Etv1 Y395F = Etv1 Y395F (human, UniProt P50549 326-429, Y395F); test: EMSA; 2 nM probe; 10 mM TCEP; saturates at 60% of probe; EMSA: 50 mM Tris-HCl pH 7.5, 50 mM NaCl, 2 mM MgCl2, 0.01% Tween 20, 5% glycerol, 1 h at room temperature; proteins reduced with 10 mM TCEP unless stated; 10% native PAGE
# Chain of Etv1 Y395F (P50549 326-429 Y395F): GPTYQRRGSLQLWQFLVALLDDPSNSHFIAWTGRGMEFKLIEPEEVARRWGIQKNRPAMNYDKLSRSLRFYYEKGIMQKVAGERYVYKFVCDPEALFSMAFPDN
# Chain of Etv1 K379A (P50549 326-429 K379A): as the sequence (P50549 326-429 Y395F) above, with K54A, F70Y counted along it
# Chain of Etv4 Ets domain (P43268 338-470): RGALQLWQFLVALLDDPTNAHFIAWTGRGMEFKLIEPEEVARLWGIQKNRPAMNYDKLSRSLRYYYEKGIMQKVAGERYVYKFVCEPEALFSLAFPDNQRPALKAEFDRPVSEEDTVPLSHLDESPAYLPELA
# Chain of Etv1 Y329S-P427S (P50549 326-429 Y329S/P427S): as the sequence (P50549 326-429 Y395F) above, with Y4S, F70Y, P102S counted along it
# Chain of Etv1 D387A (P50549 326-429 D387A): as the sequence (P50549 326-429 Y395F) above, with D62A, F70Y counted along it
# Chain of Etv5 Ets domain (P41161 365-462): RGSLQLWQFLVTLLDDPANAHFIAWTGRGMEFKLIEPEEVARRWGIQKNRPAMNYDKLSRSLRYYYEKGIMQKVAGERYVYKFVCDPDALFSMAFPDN
binder,measurement,setting,value
Etv1ALF/Etv1ALR EMSA probe (dsDNA) DNA 1: ATCTCACCGGAAGTGTAGCA DNA 2: TGCTACACTTCCGGTGAGAT,Kd,Etv1 D387A,0.17 ± 0.02 nM
same,Kd,Etv1 Y329S-P427S,0.25 ± 0.026 nM
same,binding result,Etv1 K379A,no binding
same,Kd,Etv4 Ets domain,0.34 ± 0.066 nM
same,Kd,Etv5 Ets domain,1.16 ± 0.11 nM
same,Kd,Etv1 Y395F,0.23 ± 0.05 nM

# Reference: article PMC4447949, “Structures of the Ets Protein DNA-binding Domains of Transcription Factors Etv1, Etv4, Etv5, and Fev” (The Journal of Biological Chemistry, 2015)
